B1: full-length mouse TBK1 (GST tag cleaved) (enzyme, UniProt Q9WUN2 1-729, looked up)
chain: MQSTSNHLWLLSDILGQGATANVFRGRHKKTGDLYAVKVFNNISFLRPVDVQMREFEVLKKLNHKNIVKLFAIEEETTTRHKVLIMEFCPCGSLYTVLEEPSNAYGLPESEFLIVLRDVVGGMNHLRENGIVHRDIKPGNIMRVIGEDGQSVYKLTDFGAARELEDDEQFVSLYGTEEYLHPDMYERAVLRKDHQKKYGATVDLWSVGVTFYHAATGSLPFRPFEGPRRNKEVMYKIITGKPSGAISGVQKAENGPIDWSGDMPLSCSLSQGLQALLTPVLANILEADQEKCWGFDQFFAETSDVLHRMVIHVFSLQHMTAHKIYIHSYNTAAVFHELVYKQTKIVSSNQELIYEGRRLVLELGRLAQHFPKTTEENPIFVTSREQLNTVGLRYEKISLPKIHPRYDLDGDASMAKAVTGVVCYACRTASTLLLYQELMRKGVRWLVELVKDDYNETVHKKTEVVITLDFCIRNIEKTVKVYEKLMKVNLEAAELGEISDIHTKLLRLSSSQGTIESSLQDISSRLSPGGLLADTWAHQEGTHPRDRNVEKLQVLLNCITEIYYQFKKDKAERRLAYNEEQIHKFDKQKLYYHATKAMSHFSEECVRKYEAFKDKSEEWMRKMLHLRKQLLSLTNQCFDIEEEVSKYQDYTNELQETLPQKMLAASGGVKHAMAPIYPSSNTLVEMTLGMKKLKEEMEGVVKELAENNHILERFGSLTMDGGLRNVDCL
B2: mouse TBK1 C-terminal truncation, residues 1-657 (GST tag cleaved) (domain or fragment, UniProt Q9WUN2 1-657, looked up)
chain: MQSTSNHLWLLSDILGQGATANVFRGRHKKTGDLYAVKVFNNISFLRPVDVQMREFEVLKKLNHKNIVKLFAIEEETTTRHKVLIMEFCPCGSLYTVLEEPSNAYGLPESEFLIVLRDVVGGMNHLRENGIVHRDIKPGNIMRVIGEDGQSVYKLTDFGAARELEDDEQFVSLYGTEEYLHPDMYERAVLRKDHQKKYGATVDLWSVGVTFYHAATGSLPFRPFEGPRRNKEVMYKIITGKPSGAISGVQKAENGPIDWSGDMPLSCSLSQGLQALLTPVLANILEADQEKCWGFDQFFAETSDVLHRMVIHVFSLQHMTAHKIYIHSYNTAAVFHELVYKQTKIVSSNQELIYEGRRLVLELGRLAQHFPKTTEENPIFVTSREQLNTVGLRYEKISLPKIHPRYDLDGDASMAKAVTGVVCYACRTASTLLLYQELMRKGVRWLVELVKDDYNETVHKKTEVVITLDFCIRNIEKTVKVYEKLMKVNLEAAELGEISDIHTKLLRLSSSQGTIESSLQDISSRLSPGGLLADTWAHQEGTHPRDRNVEKLQVLLNCITEIYYQFKKDKAERRLAYNEEQIHKFDKQKLYYHATKAMSHFSEECVRKYEAFKDKSEEWMRKMLHLRKQLLSLTNQCFDIEEEVSKYQDYTNELQET

Molecular target: the molecule itself
Assay: SEC

| Protein | stoichiometry N |
| --- | --- |
| B1 | 2 |
| B2 | 2 |

Source: article PMC3702631 (Structure (London, England : 1993), 2013)
